Data published in the RNAGym collection of RNA variant scans (doi:10.1073/pnas.2313332121).

B1: TPR t1 (parent)
chain: GACCAAUCUGCCCUCAGAGCUCGAGAACAUCUUCGGAUGCAGAGGAGGCAGGCUUCGGUGGCGCGAUAGCGCCAACGUCCUCAACCUCCAAUGCAUCCCACCACAUGAUGAUGCCUGAAGAGCCUUGGUUUUUUG

Variants of: B1
Experiment: polymerase ribozyme fitness, log enrichment relative to wild type (log ratio); higher = more active; in vitro selection for triplet polymerase activity
Summary of the method: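 In triplicate, a single round of in vitro selection was run on each mutant library, PCR-built and transcribed, covering one subunit of a heterodimeric triplet polymerase ribozyme. Frozen incubation at −7 °C followed annealing with a biotinylated primer, partner subunit and triplets, and extended constructs were then gel-excised, streptavidin-captured and taken through RT-PCR. Fitness is the logarithm of genotype enrichment over wild-type enrichment, from inverse-variance-weighted replicate averages of Illumina-sequenced inputs and outputs. […] only genotypes with ≥10 input reads and ≥1 read per output were kept.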
For G19A C72U A75U C114A, the “polymerase ribozyme fitness (log ratio)” value was -2.05. For U21A C53U C85U, the “polymerase ribozyme fitness (log ratio)” value was -2.21. In the case of A18U G48C C49A, the “polymerase ribozyme fitness (log ratio)” value is reported as -3.25. With A18U G71A the “polymerase ribozyme fitness (log ratio)” value was -2.85. With A18U G39U C73U C85G the “polymerase ribozyme fitness (log ratio)” value was -4.26. With C20A U21A C73G the “polymerase ribozyme fitness (log ratio)” value was -4.94. For C20U C28G G69C G110U, the “polymerase ribozyme fitness (log ratio)” value was -5.16. In the case of C20U C72G, the “polymerase ribozyme fitness (log ratio)” value is reported as -1.56. For C20U C72A, the “polymerase ribozyme fitness (log ratio)” value was -1.55. For G19A G63A, the “polymerase ribozyme fitness (log ratio)” value was -3.09. For U21A G135U, the “polymerase ribozyme fitness (log ratio)” value was -0.915. With C20A U112C the “polymerase ribozyme fitness (log ratio)” value was -1.35. With C20A U112G the “polymerase ribozyme fitness (log ratio)” value was -1.72. With C20U G52U G61U U87C the “polymerase ribozyme fitness (log ratio)” value was -1.96. With C20A U131A the “polymerase ribozyme fitness (log ratio)” value was -3.53. For G19C C62U C64U G120C, the “polymerase ribozyme fitness (log ratio)” value was -2.12. For A18U G117C, the “polymerase ribozyme fitness (log ratio)” value was -4.12. In the case of C20U G36U G135U, the “polymerase ribozyme fitness (log ratio)” value is reported as -2.95. In the case of A18U A29U U54G U78C C89G C114G, the “polymerase ribozyme fitness (log ratio)” value is reported as -3.24. For C20U A50U U78C, the “polymerase ribozyme fitness (log ratio)” value was -1.87. For U21A G45A U59G G71A, the “polymerase ribozyme fitness (log ratio)” value was -4.25. With C20U A26C G42U U54G C64U G122A C124A the “polymerase ribozyme fitness (log ratio)” value was -6.48. In the case of C20U A83C U112G, the “polymerase ribozyme fitness (log ratio)” value is reported as -2.09. With U21A C76U the “polymerase ribozyme fitness (log ratio)” value was -0.123. With A18U U78G U96G the “polymerase ribozyme fitness (log ratio)” value was -4.41. With A18U U81A C114A the “polymerase ribozyme fitness (log ratio)” value was -3.7. For U21A C56G C73A C99G G120A U131C, the “polymerase ribozyme fitness (log ratio)” value was -7.97. With G19C C53A G93A C123U the “polymerase ribozyme fitness (log ratio)” value was -2.59. In the case of C20A G36C U126C, the “polymerase ribozyme fitness (log ratio)” value is reported as -4.66. With C20U G93U the “polymerase ribozyme fitness (log ratio)” value was -3.35. In the case of C20U G39A G110U G128A, the “polymerase ribozyme fitness (log ratio)” value is reported as -5.92. For C20U C64U C104A G107C G128A, the “polymerase ribozyme fitness (log ratio)” value was -6.14. In the case of G19A A66U C101U, the “polymerase ribozyme fitness (log ratio)” value is reported as -4.61. With A18U C40G A83U the “polymerase ribozyme fitness (log ratio)” value was -4.16. For G19C C40U G48U G110C, the “polymerase ribozyme fitness (log ratio)” value was -6.52. In the case of U21A G63C, the “polymerase ribozyme fitness (log ratio)” value is reported as -0.995. For A18U G36A A50G, the “polymerase ribozyme fitness (log ratio)” value was -3.46. For G19A C101U, the “polymerase ribozyme fitness (log ratio)” value was -3.3. In the case of C20U U54A C73A C115G, the “polymerase ribozyme fitness (log ratio)” value is reported as -3.1. In the case of G19A C49U G113U, the “polymerase ribozyme fitness (log ratio)” value is reported as -2.65. In the case of C20U G36A G48C G113A, the “polymerase ribozyme fitness (log ratio)” value is reported as 0.28. For G19A C76U C124U, the “polymerase ribozyme fitness (log ratio)” value was -1.46. With A18U G113U C114U C124A U130C the “polymerase ribozyme fitness (log ratio)” value was -2.93. In the case of C20A C40U U59A G117U G128C, the “polymerase ribozyme fitness (log ratio)” value is reported as -4.96. In the case of G19C U55A C64U A66U C104U, the “polymerase ribozyme fitness (log ratio)” value is reported as -3.86. With C20A C22A G69U U81G U96G A121U the “polymerase ribozyme fitness (log ratio)” value was -5.24. With U21A A26G C40G C49A the “polymerase ribozyme fitness (log ratio)” value was -3.04. With A18U G39A U54A C70A C124U G127A the “polymerase ribozyme fitness (log ratio)” value was -4.66. In the case of G19U C76A C85U C124G, the “polymerase ribozyme fitness (log ratio)” value is reported as -3.5. In the case of A18U C79U C101G, the “polymerase ribozyme fitness (log ratio)” value is reported as -4.83. With G19A U109A the “polymerase ribozyme fitness (log ratio)” value was -5.74. For C20G A50U U78C U96G U112A A118G, the “polymerase ribozyme fitness (log ratio)” value was -6.42. For C20A C49U C72U U78C, the “polymerase ribozyme fitness (log ratio)” value was -3.44. With C20A G58U G71U C89G the “polymerase ribozyme fitness (log ratio)” value was -5.13. In the case of C20G A43G, the “polymerase ribozyme fitness (log ratio)” value is reported as -3.54. For G19U C73A C80U U112C C114A U126A, the “polymerase ribozyme fitness (log ratio)” value was -1.24. In the case of C20G A90C A95U, the “polymerase ribozyme fitness (log ratio)” value is reported as -4.06. For C20A C101U, the “polymerase ribozyme fitness (log ratio)” value was -3.43. With A18U G42C A50U the “polymerase ribozyme fitness (log ratio)” value was -3.92. With A18U G69U the “polymerase ribozyme fitness (log ratio)” value was -0.112. With U21A A50C the “polymerase ribozyme fitness (log ratio)” value was -0.532. With G19U C53G U54A G61A C124A G128A the “polymerase ribozyme fitness (log ratio)” value was -3.82. In the case of C20A G71U, the “polymerase ribozyme fitness (log ratio)” value is reported as -2.48. In the case of A18U C62A, the “polymerase ribozyme fitness (log ratio)” value is reported as -4.11. With A18U C40G the “polymerase ribozyme fitness (log ratio)” value was -4.04. With U21A U106A U132A the “polymerase ribozyme fitness (log ratio)” value was -0.182. In the case of G19U A41C G48U G120U, the “polymerase ribozyme fitness (log ratio)” value is reported as -4.33. With A18U U21C G36A C114U the “polymerase ribozyme fitness (log ratio)” value was -3.69. With U21A U130G the “polymerase ribozyme fitness (log ratio)” value was 0.0378. For U21A U130A, the “polymerase ribozyme fitness (log ratio)” value was -0.5. In the case of A18U G69C C85A C89G, the “polymerase ribozyme fitness (log ratio)” value is reported as -6.03. With G19A C73U the “polymerase ribozyme fitness (log ratio)” value was -2.61. In the case of G19C C22U A46C C114U, the “polymerase ribozyme fitness (log ratio)” value is reported as -5.79. In the case of C20A G42U G47U C53U, the “polymerase ribozyme fitness (log ratio)” value is reported as -3.95. For C20A A24U U54A C115G, the “polymerase ribozyme fitness (log ratio)” value was -6.69. In the case of C20U G45U G52A C73G C94U C104U, the “polymerase ribozyme fitness (log ratio)” value is reported as -4.54. In the case of U21A G60U A90G, the “polymerase ribozyme fitness (log ratio)” value is reported as 0.0218. With C20G C40U the “polymerase ribozyme fitness (log ratio)” value was -2.61. In the case of G19A G61C, the “polymerase ribozyme fitness (log ratio)” value is reported as -4.27. For C20U U96A U130G, the “polymerase ribozyme fitness (log ratio)” value was -4.47. For U21A A29C, the “polymerase ribozyme fitness (log ratio)” value was -3.14. With C20A G45U C53G C88U A111U U125G the “polymerase ribozyme fitness (log ratio)” value was -4.56. In the case of C20A C56A C72G A90G, the “polymerase ribozyme fitness (log ratio)” value is reported as -4.82.
